According to patent US20150140573A1:

What was measured:
[1] = biological target: barley limit dextrinase present in barley malt extract (barley (Hordeum vulgare subsp. vulgare)); assay: cell-based or functional assay; settings: scale: fraction of the rate of the uninhibited sample
[2] = biological target: recombinant barley limit dextrinase inhibitor

Molecule	rate of o-NP release from compound 6 in barley malt extract (absorbance at 430 nm), with and without added limit dextrinase inhibitor [1]	hydrolysis of compound 19 in barley malt extract after 1 h at 60 C (UPLC, fluorescence detection), with and without added LDI [2]
recombinant barley limit dextrinase inhibitor	0.1	
barley limit dextrinase present in barley malt extract (protein) MAVGETGASVSAAEAEAEATQAFMPDARAYWVTSDLIAWNVGELEAQSVCLYASRAAAMSLSPSNGGIQGYDSKVELQPESAGLPETVTQKFPFISSYRAFKVPSSVDVASLVKCQLVVASFGADGKHVDVTGLQLPGVLDDMFAYTGPLGAVFSEDSVSLHLWAPTAQGVSVCFFDGPAGPALETVQLKESNGVWSVTGPREWENRYYLYEVDVYHPTKAQVLKCLAGDPYARSLSANGARTWLVDINNETLKPASWDELADEKPKLDSFSDITIYELHIRDFSAHDGTVDSDSRGGFRAFAYQASAGMEHLRKLSDAGLTHVHLLPSFHFAGVDDIKSNWKFVDECELATFPPGSDMQQAAVVAIQEEDPYNWGYNPVLWGVPKGSYASDPDGPSRIIEYRQMVQALNRIGLRVVMDVVYNHLDSSGPCGISSVLDKIVPGYYVRRDTNGQIENSAAMNNTASEHFMVDRLIVDDLLNWAVNYKVDGFRFDLMGHIMKRTMVTKSALQSLTTDAHGVDGSKIYLYGEGWDFAEVARNQRGINGSQLNMSGTGIGSFNDRIRDAINGGNPFGNPLQQGFNTGLFLEPNGFYQGNEADTRRSLATYADQIQIGLAGNLRDYVLISHTGEAKKGSEIHTFDGLPVGYTASPIETINYVSAHDNETLFDVISVKTPMILSVDERCRINHLASSMMALSQGIPFFHAGDEILRSKSIDRDSYNSGDWFNKLDFTYETNNWGVGLPPSEKNEDNWPLMKPRLENPSFKPAKGHILAALDSFVDILKIRYSSPLFRLSTANDIKQRVRFHNTGPSLVPGVIVMGIEDARGESPEMAQLDTNFSYVVTVFNVCPHEVSMDIPALASMGFELHPVQVNSSDTLVRKSAYEAATGRFTVPGRTVSVFVEPRC		When LDI was added to the extract, almost all activity of limit dextrinase was inhibited, and only negligible amounts of the compound 19 was hydrolyzed
